# According to patent US20120252054A1, “SYSTEM FOR TRANSFORMATION OF THE CHLOROPLAST GENOME OF SCENEDESMUS SP. AND DUNALIELLA SP” (priority 2009, published 2012):
# B1: endoxylanse: endoxylanase from T. reesei (BD11) expressed in the S. dimorphus chloroplast (protein)
# chain: MVPVSFTSLLAASPPSRASCRPAAEVESVAVEKRQTIQPGTGYNNGYFYSYWNDGHGGVTYTNGPGGQFSVNWSNSGNFVGGKGWQPGTKNKVINFSGSYNPNGNSYLSVYGWSRNPLIEYYIVENFGTYNPSTGATKLGEVTSDGSVYDIYRTQRVNQPSIIGTATFYQYWSVRRNHRSSGSVNTANHFNAWAQQGLTLGTMDYQIVAVEGYFSSGSASITVSGTGDYKDDDDKSGENLYFQGHNHRHKHTG
# modifications: codon optimized endoxylanase from T. reesei
# notes: endoxylanase from T. reesei (BD11) expressed in the S. dimorphus chloroplast
# Assay: Endoxylanase enzyme function assay on clarified lysates
# Assay type: biochemical, T. reesei
# Details: clarified lysates of S. dimorphus transformants (parent 2 and 4), normalized for total soluble protein, pH 4.8, 42 degrees Celsius
# Protocol: To determine if the endoxylanase produced by transformed algae cells was functional, endoxylanase activity was tested using an enzyme function assay. Briefly, algae cells were collected from TAP agar medium and suspended in BugBuster solution (Novagen). Cells were lysed by bead beating using zirconium beads. Cell lysates were clarified by centrifugation and the supernatants were normalized for total soluble protein (Coomassie Plus Protein Assay Kit, Thermo Scientific). 100 μL of each sample was mixed with 10 μL of 10× xylanase assay buffer (1M sodium acetate, pH=4.8) and 50 μL of the sample mixture was added to one well in a black 96-well plate. EnzCheck Ultra Xylanase substrate (Invitrogen) was dissolved at a concentration of 50 ug/ml in 100 mM sodium acetate pH 4.8, and 50 μL of substrate was added to each well of the microplate. The fluorescent signal was measured in a SpectraMax M2 microplate reader (Molecular Devices), with an excitation wavelength of 360 nm and an emission wavelength of 460 nm, without a cutoff filter and with the plate chamber set to 42 degrees Celsius. The fluorescence signal was measured for 15 minutes, and the enzyme velocity was calculated with Softmax Pro v5.2 (Molecular Devices). Enzyme velocities were recorded as RFU/minute. Enzyme specific activities were calculated as milliRFU per minute per μg of total soluble protein.
molecule,measurement,value
B1,endoxylanase activity in transformants relative to wild type cells,at least 4 fold
